Assay results taken from patent US20200040059A1.

Columns and labels:
[1] = molecular target: CD112R, expressed on transfected cells (human) (UniProt Q6DKI7); assay: flow cytometry on transfected cells
[2] = molecular target: T1, human CD226, full length, expressed on transfected cells (human) (UniProt Q15762); assay: flow cytometry on transfected cells
T1 sequence: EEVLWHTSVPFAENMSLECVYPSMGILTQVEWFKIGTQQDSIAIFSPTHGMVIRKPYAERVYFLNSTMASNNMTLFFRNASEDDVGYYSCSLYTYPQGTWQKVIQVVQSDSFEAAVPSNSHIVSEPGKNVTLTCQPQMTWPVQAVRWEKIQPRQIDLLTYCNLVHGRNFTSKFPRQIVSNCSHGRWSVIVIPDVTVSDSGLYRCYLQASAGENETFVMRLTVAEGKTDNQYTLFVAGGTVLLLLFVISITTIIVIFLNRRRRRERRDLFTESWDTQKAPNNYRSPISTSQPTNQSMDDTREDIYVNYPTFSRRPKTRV

[3] = molecular target: CD96, expressed on transfected cells (UniProt P40200); assay: flow cytometry on transfected cells
[4] = molecular target: CD80 (Homo sapiens (Human)) (UniProt P33681); assay: flow cytometry, cells expressing CD80
[5] = molecular target: human PD-L1, full length, on transfected HEK293 cells (human) (UniProt Q9NZQ7); assay: flow cytometry, Fc fusion at 22.2 nM on HEK293 cells transfected with PD-L1
CD96 = molecular target: T2, CD96 (UniProt P40200); assay: flow cytometry, cells expressing target, 25 nM
T2 sequence (looked up): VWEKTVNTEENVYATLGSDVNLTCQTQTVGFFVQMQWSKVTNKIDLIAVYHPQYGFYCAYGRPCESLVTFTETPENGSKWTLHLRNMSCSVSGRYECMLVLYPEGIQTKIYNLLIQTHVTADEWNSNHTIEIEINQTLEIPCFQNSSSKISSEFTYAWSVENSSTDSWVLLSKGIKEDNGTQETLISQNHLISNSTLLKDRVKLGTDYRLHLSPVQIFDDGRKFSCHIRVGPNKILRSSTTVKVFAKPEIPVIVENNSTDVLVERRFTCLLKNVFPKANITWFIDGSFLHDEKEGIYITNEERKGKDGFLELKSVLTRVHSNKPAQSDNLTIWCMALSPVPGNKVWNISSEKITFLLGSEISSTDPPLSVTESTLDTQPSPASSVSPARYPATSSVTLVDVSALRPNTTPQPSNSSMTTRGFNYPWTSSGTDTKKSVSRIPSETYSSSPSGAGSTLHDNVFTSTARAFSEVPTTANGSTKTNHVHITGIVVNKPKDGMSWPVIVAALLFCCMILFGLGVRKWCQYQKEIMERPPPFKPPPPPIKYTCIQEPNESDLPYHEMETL

CD226 (human) = molecular target: T3, CD226 (human) (UniProt Q15762); assay: flow cytometry, cells expressing target, 25 nM
T3 sequence: T1 sequence

PD-1 (human) = assay: cell-based or functional assay

Chain of CD112R, expressed on transfected cells (human) (Q6DKI7 whole entry): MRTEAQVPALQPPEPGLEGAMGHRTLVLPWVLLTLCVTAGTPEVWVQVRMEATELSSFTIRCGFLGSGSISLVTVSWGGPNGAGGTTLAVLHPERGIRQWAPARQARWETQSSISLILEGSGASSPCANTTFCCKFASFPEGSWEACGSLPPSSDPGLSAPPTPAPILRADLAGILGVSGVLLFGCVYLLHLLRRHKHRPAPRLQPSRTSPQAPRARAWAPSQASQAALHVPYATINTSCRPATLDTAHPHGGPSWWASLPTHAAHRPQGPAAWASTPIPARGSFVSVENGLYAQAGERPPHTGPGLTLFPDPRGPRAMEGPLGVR
Chain of CD80 (Homo sapiens (Human)) (P33681 35-288 limits assumed): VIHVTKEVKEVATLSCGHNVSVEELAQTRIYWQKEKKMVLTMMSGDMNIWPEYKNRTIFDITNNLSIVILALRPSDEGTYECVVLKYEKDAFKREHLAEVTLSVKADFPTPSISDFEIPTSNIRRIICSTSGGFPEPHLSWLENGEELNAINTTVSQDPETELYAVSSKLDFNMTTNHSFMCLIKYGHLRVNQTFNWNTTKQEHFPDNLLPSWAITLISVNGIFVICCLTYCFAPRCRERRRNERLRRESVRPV
Chain of CD112-IgV (Q92692 32-156 limits assumed): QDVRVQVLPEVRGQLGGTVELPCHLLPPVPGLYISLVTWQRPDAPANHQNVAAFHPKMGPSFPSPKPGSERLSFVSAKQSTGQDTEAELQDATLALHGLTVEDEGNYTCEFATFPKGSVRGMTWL

Substance	MFI at 100 nM [1]	MFI at 100 nM [2]	MFI at 100 nM [3]	other results
CD155 variant S42N IgV-Fc (from UniProt P15151 24-139) (Fc fusion)	1700	1910	1690	
variant PD-L1 ECD-Fc V129D, T150A (from UniProt Q9NZQ7 19-238) (Fc fusion)				MFI at 20 nM [4]: 142
CD155 variant S42G, S52L, Q62F, L104Q IgV-Fc (from UniProt P15151 24-139) (Fc fusion)	1660	2160	1640	
CD155 variant S42C, S52L IgV-Fc (from UniProt P15151 24-139) (Fc fusion)	1660	2150	1480	
CD155 variant S42Q IgV-Fc (from UniProt P15151 24-139) (Fc fusion)	1910	2230	2140	
CD155 variant S42A IgV-Fc (from UniProt P15151 24-139) (Fc fusion)	1730	2190	1620	
CD155 variant S42N, S52E, V57L, L104E IgV-Fc (from UniProt P15151 24-139) (Fc fusion)	1690	1740	1540	
variant PD-L1 ECD-Fc I36S, M97L (from UniProt Q9NZQ7 19-238) (Fc fusion)				MFI at 20 nM [4]: 44600
CD155 variant S52M, V57L IgV-Fc (from UniProt P15151 24-139) (Fc fusion)	2010	2430	1860	
Wildtype CD155 ECD-Fc (from UniProt P15151 21-343) (Fc fusion)	1780		99000	
variant PD-L1 ECD-Fc V93E, V129D (from UniProt Q9NZQ7 19-238) (Fc fusion)				MFI at 20 nM [4]: 150
CD155 variant S42L IgV-Fc (from UniProt P15151 24-139) (Fc fusion)	1740	2190	1620	
CD155 variant S42C, S52M, Q62F IgV-Fc (from UniProt P15151 24-139) (Fc fusion)	1590	2080	1480	
variant PD-L1 ECD-Fc E54G, M97L, S99G (from UniProt Q9NZQ7 19-238) (Fc fusion)				MFI at 20 nM [4]: 51900
CD155 variant S42W, S52R, Q62Y, L104Q IgV-Fc (from UniProt P15151 24-139) (Fc fusion)	1820	2300		
CD155 variant S52W, L104E IgV-Fc (from UniProt P15151 24-139) (Fc fusion)	2070	1910	1630	
CD80 variant IgV-Fc E35D/M47I/L70M (from UniProt P33681 35-141) (Fc fusion)				MFI at 22.2 nM [5]: 49100 MFI
CD155 variant S42L, S52Q, L104E IgV-Fc (from UniProt P15151 24-139) (Fc fusion)	1750	6470	1700	
CD155 variant S42V, S52E IgV-Fc (from UniProt P15151 24-139) (Fc fusion)	1810	2270	2530	
CD155 variant S42A, L104Q, G111R IgV-Fc (from UniProt P15151 24-139) (Fc fusion)	1820	1900	1700	
CD155 variant S52M, Q62Y IgV-Fc (from UniProt P15151 24-139) (Fc fusion)	1770	2000	1650	
CD155 variant S42W, S52Q, V57L, Q62Y IgV-Fc (from UniProt P15151 24-139) (Fc fusion)	1840	2140	1700	
variant PD-L1 ECD-Fc K57R, S99G, R195G (from UniProt Q9NZQ7 19-238) (Fc fusion)				MFI at 20 nM [4]: 11000
variant PD-L1 ECD-Fc S99G, T185A, R195G, P198T (from UniProt Q9NZQ7 19-238) (Fc fusion)				MFI at 20 nM [4]: 22100

Substance	MFI at 100 nM [1]	MFI at 100 nM [2]	MFI at 100 nM [3]	other results
CD112-IgV (from UniProt Q92692 32-156) (Fc fusion)				MFI at 25 nM (CD96): 1170 MFI; MFI at 25 nM (CD226 (human)): 824 MFI
variant PD-L1 ECD-Fc M18V, M97L, T176N, R195G (from UniProt Q9NZQ7 19-238) (Fc fusion)				MFI at 20 nM [4]: 45300
variant PD-L1 ECD-Fc G15A, V129D (from UniProt Q9NZQ7 19-238) (Fc fusion)				MFI at 20 nM [4]: 128
variant PD-L1 ECD-Fc V129D, H202Q (from UniProt Q9NZQ7 19-238) (Fc fusion)				MFI at 20 nM [4]: 219
CD155 variant S52M IgV-Fc (from UniProt P15151 24-139) (Fc fusion)	1550	1900		
CD155 variant S42G, S52Q, L104E, G111R IgV-Fc (from UniProt P15151 24-139) (Fc fusion)	1710	2020	1710	
CD80 variant IgV-Fc E35D/A71D/L72V (from UniProt P33681 35-141) (Fc fusion)				MFI at 22.2 nM [5]: 13100 MFI
variant PD-L1 ECD-Fc V129D, P198T (from UniProt Q9NZQ7 19-238) (Fc fusion)				MFI at 20 nM [4]: 152
CD155 variant S42L, S52L, Q62F, L104Q IgV-Fc (from UniProt P15151 24-139) (Fc fusion)	1730	2640	2320	
variant PD-L1 ECD-Fc I36T, M97L, V129D (from UniProt Q9NZQ7 19-238) (Fc fusion)				MFI at 20 nM [4]: 50900
CD155 variant S52W IgV-Fc (from UniProt P15151 24-139) (Fc fusion)		2040	1710	
PD-L2 IgV-Fc I13V, H15Q, Q72H, R76G, I86T (Fc fusion)				Fold increase over wildtype PD-L2 IgV-Fc, MLR IFN gamma (PD-1 (human)): 0.89 fold; IFN gamma levels pg/mL, MLR (PD-1 (human)): 1220 pg/mL
PD-L2 IgV-Fc H15Q, V31M, S67L, Q82R, V89D (Fc fusion)				Fold increase over wildtype PD-L2 IgV-Fc, MLR IFN gamma (PD-1 (human)): 0.88 fold; IFN gamma levels pg/mL, MLR (PD-1 (human)): 1210 pg/mL
PD-L2 IgV-Fc I13V, H15Q, T47A, H69L, R76G, V89D (Fc fusion)				Fold increase over wildtype PD-L2 IgV-Fc, MLR IFN gamma (PD-1 (human)): 0.78 fold; IFN gamma levels pg/mL, MLR (PD-1 (human)): 1080 pg/mL
PD-L2 IgV-Fc H15Q, S39I, S67L, V89D (Fc fusion)				Fold increase over wildtype PD-L2 IgV-Fc, MLR IFN gamma (PD-1 (human)): 0.89 fold; IFN gamma levels pg/mL, MLR (PD-1 (human)): 1230 pg/mL
PD-L2 IgV-Fc F2L, H15Q, D46E, T47A, Q72H, R76G, Q82R, V89D (Fc fusion)				Fold increase over wildtype PD-L2 IgV-Fc, MLR IFN gamma (PD-1 (human)): 0.85 fold; IFN gamma levels pg/mL, MLR (PD-1 (human)): 1170 pg/mL
CD155 variant G111R IgV-Fc (from UniProt P15151 24-139) (Fc fusion)	2470	2790	3320	
PD-L2 IgV-Fc I13V, H15Q, T47A, Q72H, R76G (Fc fusion)				Fold increase over wildtype PD-L2 IgV-Fc, MLR IFN gamma (PD-1 (human)): 1.07 fold; IFN gamma levels pg/mL, MLR (PD-1 (human)): 1470 pg/mL
CD155 variant S42C IgV-Fc (from UniProt P15151 24-139) (Fc fusion)	1680	2100	1590	
variant PD-L1 ECD-Fc K57R, S99G (from UniProt Q9NZQ7 19-238) (Fc fusion)				MFI at 20 nM [4]: 16300
CD155 variant Q62F, L104E, G111R IgV-Fc (from UniProt P15151 24-139) (Fc fusion)	1700	2040	1520	
variant PD-L1 ECD-Fc M18V, I98L, L124S, P198T, L206F (from UniProt Q9NZQ7 19-238) (Fc fusion)				MFI at 20 nM [4]: 143
PD-L2 IgV-Fc H15Q, K65R (Fc fusion)				Fold increase over wildtype PD-L2 IgV-Fc, MLR IFN gamma (PD-1 (human)): 1.1 fold; IFN gamma levels pg/mL, MLR (PD-1 (human)): 1510 pg/mL
CD155 variant S42A, S52Q, L104Q, G111R IgV-Fc (from UniProt P15151 24-139) (Fc fusion)	1890	2160	1640	
